The target of the test is cytosolic PAS domain (PASc) of the bacterial citrate sensor histidine kinase (CitA). As to the kind of experiment: MINFLUX fluorescence nanoscopy.

On to “cytosolic PAS domain (PASc) of the bacterial citrate sensor histidine kinase (CitA) (domain or fragment)”, for which the stoichiometry N was determined as 2.

In general, stoichiometry N refers to the number of molecules, sites or subunits per partner or assembly.

These data come from paper doi:10.1101/2023.07.07.548133.
